Test results as given in US20210292396A1 (INTERNATIONAL AIDS VACCINE INITIATIVE, published 2021).
Where a chain is given by its changes, count along the chain named.

B1: ePGT121.15.H1.L1 (antibody, V domains shown)
VH: QMQLQESGPGLVKPGETLSLTCSVSGASISSSYWSWLRETPGKGLEWIGYTHHSGDTNYAPSLKSRVHLGLHPSKNQVSLSLTSVTAADTAVYYCARTLHGRRIYGVVAFNEWFTYFYWEVWGNGTQVTVSS
VL: SDISVAPGETVRISCGGESIGSRAVQWYQHRAGQAPKLIIYNNQDRPPGIPERFSGSPDIDFGTTATLTITNVEAGDEATYYCHIWDSRRPTNWVFGGGTTLTVL
B2: ePGT121.15.H6.L1 (antibody, V domains shown)
VH: B1 VH with W113F, N124K
VL: B1 VL
B3: PGT-121 (antibody, V domains shown)
VH: QMQLQESGPGLVKPSETLSLTCSVSGASISDSYWSWIRRSPGKGLEWIGYVHKSGDTNYSPSLKSRVNLSLDTSKNQVSLSLVAATAADSGKYYCARTLHGRRIYGIVAFNEWFTYFYMDVWGNGTQVTVSS
VL: SDISVAPGETARISCGEKSLGSRAVQWYQHRAGQAPSLIIYNNQDRPSGIPERFSGSPDSPFGTTATLTITSVEAGDEADYYCHIWDSRVPTKWVFGGGTTLTVLG

Molecular target: HIV Env of isolate 928-28 (HIV)
Assay: cell-based or functional assay

Binder	neutralization (Table 6 value)
B1	0.0868
B2	0.0852
B3	0.836

Molecular target: HIV Env of isolate 6535.3 (HIV)
Assay: cell-based or functional assay

Binder	neutralization (Table 6 value)
B1	0.00121
B2	0.00121
B3	0.00325

Molecular target: HIV Env of isolate CAP45.2.00.G3 (HIV)
Assay: cell-based or functional assay

Binder	neutralization (Table 6 value)
B1	3.06
B2	1.8e-05
B3	0.0713

Molecular target: HIV Env of isolate SC422661.8 (HIV)
Assay: cell-based or functional assay

Binder	neutralization (Table 6 value)
B1	0.00372
B2	0.00285
B3	0.0272

Molecular target: HIV Env of isolate 6240_08_TA5_4622 (HIV)
Assay: cell-based or functional assay

Binder	neutralization (Table 6 value)
B1	0.0052
B2	0.00465
B3	0.0427

Molecular target: HIV Env of isolate TRJO4551.58 (HIV)
Assay: cell-based or functional assay

Binder	neutralization (Table 6 value)
B1	0.00359
B2	0.00673
B3	0.406

Molecular target: HIV Env of isolate A07412M1.vrc12 (HIV)
Assay: cell-based or functional assay

Binder	neutralization (Table 6 value)
B1	0.000964
B2	0.00204
B3	0.00949

Molecular target: HIV Env of isolate CAP210.2.00.E8 (HIV)
Assay: cell-based or functional assay

Binder	neutralization (Table 6 value)
B1	0.0229
B2	0.0311
B3	0.618

Molecular target: HIV Env of isolate 6480.v4.c25 (HIV)
Assay: cell-based or functional assay

Binder	neutralization (Table 6 value)
B1	0.000305
B2	0.000826
B3	0.000306

Molecular target: HIV Env of isolate ZM247v1(Rev-) (HIV)
Assay: cell-based or functional assay

Binder	neutralization (Table 6 value)
B1	0.00158
B2	0.00191
B3	0.0114

Molecular target: HIV Env of isolate ZM109F.PB4 (HIV)
Assay: cell-based or functional assay

Binder	neutralization (Table 6 value)
B1	2.15
B2	0.742
B3	0.558

Molecular target: HIV Env of isolate CNE53 (HIV)
Assay: cell-based or functional assay

Binder	neutralization (Table 6 value)
B1	0.00288
B2	0.00306
B3	0.00701

Molecular target: HIV Env of isolate 1006_11_C3_1601 (HIV)
Assay: cell-based or functional assay

Binder	neutralization (Table 6 value)
B1	0.00195
B2	0.00214
B3	0.00382

Molecular target: HIV Env of isolate 1394C9G1(Rev-) (HIV)
Assay: cell-based or functional assay

Binder	neutralization (Table 6 value)
B1	0.00403
B2	0.00288
B3	0.122

Molecular target: HIV Env of isolate 246F_C1G (HIV)
Assay: cell-based or functional assay

Binder	neutralization (Table 6 value)
B1	0.00428
B2	0.00278
B3	0.0215

Molecular target: HIV Env of isolate CAAN5342.A2 (HIV)
Assay: cell-based or functional assay

Binder	neutralization (Table 6 value)
B1	0.00192
B2	0.00221
B3	0.00872

Molecular target: HIV Env of isolate 7030102001E5(Rev-) (HIV)
Assay: cell-based or functional assay

Binder	neutralization (Table 6 value)
B1	0.00261
B2	0.00241
B3	0.00679

Molecular target: HIV Env of isolate Du172.17 (HIV)
Assay: cell-based or functional assay

Binder	neutralization (Table 6 value)
B1	0.0024
B2	0.00203
B3	0.0316

Molecular target: HIV Env of isolate 0330.v4.c3 (HIV)
Assay: cell-based or functional assay

Binder	neutralization (Table 6 value)
B1	0.00621
B2	0.00764
B3	0.0513

Molecular target: HIV Env of isolate QH0692.42 (HIV)
Assay: cell-based or functional assay

Binder	neutralization (Table 6 value)
B1	0.0149
B2	0.0126
B3	0.176

Molecular target: HIV Env of isolate 1012_11_TC21_3257 (HIV)
Assay: cell-based or functional assay

Binder	neutralization (Table 6 value)
B1	0.00262
B2	0.00194
B3	0.00917

Molecular target: HIV Env of isolate T250-4 (HIV)
Assay: cell-based or functional assay

Binder	neutralization (Table 6 value)
B1	0.000854
B2	0.000789
B3	0.00021

Molecular target: HIV Env of isolate 1056_10_TA11_1826 (HIV)
Assay: cell-based or functional assay

Binder	neutralization (Table 6 value)
B1	0.00391
B2	0.00186
B3	0.0162

Molecular target: HIV Env of isolate X1254_c3 (HIV)
Assay: cell-based or functional assay

Binder	neutralization (Table 6 value)
B1	0.00299
B2	0.00272
B3	0.0206

Molecular target: HIV Env of isolate Du156.12 (HIV)
Assay: cell-based or functional assay

Binder	neutralization (Table 6 value)
B1	0.00124
B2	0.000917
B3	0.00534

Molecular target: HIV Env of isolate CNE58 (HIV)
Assay: cell-based or functional assay

Binder	neutralization (Table 6 value)
B1	0.00795
B2	0.0145
B3	1.28

Molecular target: HIV Env of isolate 3103.v3.c10 (HIV)
Assay: cell-based or functional assay

Binder	neutralization (Table 6 value)
B1	0.00509
B2	0.00513
B3	0.0206

Molecular target: HIV Env of isolate REJO4541.67 (HIV)
Assay: cell-based or functional assay

Binder	neutralization (Table 6 value)
B1	0.311
B2	8e-06
B3	0.286

Molecular target: HIV Env of isolate 6952.v1.c20 (HIV)
Assay: cell-based or functional assay

Binder	neutralization (Table 6 value)
B1	0.00081
B2	0.000793
B3	0.000292

Molecular target: HIV Env of isolate CNE52 (HIV)
Assay: cell-based or functional assay

Binder	neutralization (Table 6 value)
B1	0.0515
B2	0.0784
B3	1.94

Molecular target: HIV Env of isolate T211-9 (HIV)
Assay: cell-based or functional assay

Binder	neutralization (Table 6 value)
B1	0.00532
B2	0.00751
B3	0.891

Molecular target: HIV Env of isolate RHPA4259.7 (HIV)
Assay: cell-based or functional assay

Binder	neutralization (Table 6 value)
B1	0.00233
B2	0.00225
B3	0.00915

Molecular target: HIV Env of isolate SC05_8C11_2344 (HIV)
Assay: cell-based or functional assay

Binder	neutralization (Table 6 value)
B1	0.00762
B2	0.00473
B3	0.0278

Molecular target: HIV Env of isolate 191084_B7-19 (HIV)
Assay: cell-based or functional assay

Binder	neutralization (Table 6 value)
B1	0.00279
B2	0.00312
B3	0.0247

Molecular target: HIV Env of isolate HIV-16845-2.22 (HIV)
Assay: cell-based or functional assay

Binder	neutralization (Table 6 value)
B1	0.0209
B2	0.0283
B3	0.25

Molecular target: HIV Env of isolate PVO.4 (HIV)
Assay: cell-based or functional assay

Binder	neutralization (Table 6 value)
B1	0.0044
B2	0.00517
B3	0.115

Molecular target: HIV Env of isolate Q23.17 (HIV)
Assay: cell-based or functional assay

Binder	neutralization (Table 6 value)
B1	0.00126
B2	0.00146
B3	0.00412

Molecular target: HIV Env of isolate 3817.v2.c59 (HIV)
Assay: cell-based or functional assay

Binder	neutralization (Table 6 value)
B1	0.00495
B2	0.00361
B3	0.00949

Molecular target: HIV Env of isolate ZM53M.PB12 (HIV)
Assay: cell-based or functional assay

Binder	neutralization (Table 6 value)
B1	0.00206
B2	0.00204
B3	0.00038

Molecular target: HIV Env of isolate Ce704809221_1B3 (HIV)
Assay: cell-based or functional assay

Binder	neutralization (Table 6 value)
B1	0.00162
B2	0.00231
B3	0.028

Molecular target: HIV Env of isolate T251-18 (HIV)
Assay: cell-based or functional assay

Binder	neutralization (Table 6 value)
B1	0.0274
B2	0.0274
B3	1.16

Molecular target: HIV Env of isolate CNE30 (HIV)
Assay: cell-based or functional assay

Binder	neutralization (Table 6 value)
B1	0.00299
B2	0.00289
B3	0.00313

Molecular target: HIV Env of isolate 6244_13_B5_4576 (HIV)
Assay: cell-based or functional assay

Binder	neutralization (Table 6 value)
B1	0.00697
B2	0.0055
B3	0.14

Molecular target: HIV Env of isolate 3301.v1.c24 (HIV)
Assay: cell-based or functional assay

Binder	neutralization (Table 6 value)
B1	0.00166
B2	0.00134
B3	0.00869

Molecular target: HIV Env of isolate CNE21 (HIV)
Assay: cell-based or functional assay

Binder	neutralization (Table 6 value)
B1	0.000929
B2	0.00124
B3	0.00525
